The nanobody polyreactivity screen of Harvey et al. (2022)

Assay: yeast display, Sf9 membrane polyspecificity reagent, FACS + sequencing; frameworks hold sequencing errors
In short: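 Synthetic nanobody libraries on Saccharomyces cerevisiae BJ5465 were galactose-induced for 36–48 hours, stained 1 hour at 4 °C with 10% biotinylated, detergent-solubilized Sf9 membrane reagent and enriched on streptavidin microbeads. FACS then separated cells into low and high (top ~1%) gates by anti-HA (expression) and streptavidin (reagent binding) fluorescence. Genes were colony-PCR amplified, MiSeq 2 × 250 sequenced and CDR-length filtered. A clone's polyreactivity label is that of its gate of origin.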
In the case of “QVQLVESGGGLVQAGGSLRLSCASSGRTFYDNTMGWYRQAPGKERELVAGISYSGGSTYYADSVKGRFTISRDNAKNTVYLQMNSLKPEDTAVYYCNAELYFPYFDGKTRHGGYWGQGTQVTVSS”, the “polyreactivity (PSR sort gate)” value is reported as “low polyreactivity”. With “QVQLVESGGGLVQAGGSLRLSCASSGRTFYIYAIGWYRQAAGKERELVASISRGGSTTYADSVKGRFTISRDNAKNTVYLQMNSLKPEDTAVYYCNARAYYDMNQWGQGTQVTVSS” the “polyreactivity (PSR sort gate)” value was “low polyreactivity”. For “QVQLVESGGGLVQAGGSLRLSCASSGRTFYIYDMGWYRQAPGKERELVAAITSVGSTNYADSVKGRFTISRDNAMNTVYLQMNSLKPEDTAVYYCAAESTVGTSGDYDYWGQGTQVTVSS”, the “polyreactivity (PSR sort gate)” value was “low polyreactivity”. For “QVQLVESGGGLVQAGGSLRLSCASSGRTISSYAMGWYRQPPGKERELVAGISWRGGRTYYADSVKGRFTISRDNAKITVYLQMNSLKPEDTAVSYCAADRVRGGYRTYYWVVHLDYWGQGTQVTVSS”, the “polyreactivity (PSR sort gate)” value was “high polyreactivity”. For “QVQLVESGGGLVQAGGSLRLSCASSGRTSVINAMGWYRQAPGKERELVATITWSGASTYYADSVKGRFTISRDNAKNTVYLQMNSLKPEDTAVYYCNAESLYTPYNDTSLTVEYGYWGQGTQVTVSS”, the “polyreactivity (PSR sort gate)” value was “low polyreactivity”. In the case of “QVQLVESGGGLVQAGGSLRLSCASSGRTVGYNAMGWSRQPPGKEREFVAAITWSGGRTYYADSVKGRFTISRDNAKNTVYLLMNSLKPEDTAVYYCAIDGYWDFDYWGQGTQVSVSS”, the “polyreactivity (PSR sort gate)” value is reported as “low polyreactivity”. For “QVQLVESGGGLVQAGGSLRLSCASSGSIFAWNAMGWYRQTPGKERELVAAINSGGGTYYADSVKGRFTISRDNAKNTVYSQMNSLIPEDTAVYYCAAGRLSHRYRYNYWGQGTQVTVSS”, the “polyreactivity (PSR sort gate)” value was “high polyreactivity”. For “QVQLVESGGGLVQAGGSLRLSCASSGSIFFANAIGWYRQAPGKERELVATISWRGGSTYYAYSVKGRFTISRDIAKNSVYLQKNSLKPEDTAVYYCAAGYYPYWGQGTQLTVSS”, the “polyreactivity (PSR sort gate)” value was “low polyreactivity”. In the case of “QVQLVESGGGLVQAGGSLRLSCASSGSIFFEYAMVWYRQAPGKERELDASINRGGGSTYYADSVKGRFTISRDNAKNTVYLQMNSLKPEDTAVYYCAAQWKYRQSYLDYYWGQGTQVTVSS”, the “polyreactivity (PSR sort gate)” value is reported as “low polyreactivity”. For “QVQLVESGGGLVQAGGSLRLSCASSGSIFFLYAMGWYRQAPGKERELVAAITGSGSRTYYADSVKGRFTISRDNEKNTVYLHMNSLKPEYTAVYYCAARYYGAYGKQPRARYGYWGKGTQVTVSS”, the “polyreactivity (PSR sort gate)” value was “high polyreactivity”. With “QVQLVESGGGLVQAGGSLRLSCASSGSIFGAYAMGWYRQAPGKERELVAAITSVGSTYYADSVKGRFTISRDNAKNTVYVQMNSLIPEDTAVYYCAKRQWRPTYRYGYWGQGTQVTVSS” the “polyreactivity (PSR sort gate)” value was “low polyreactivity”. With “QVQLVESGGGLVQAGGSLRLSCASSGSIFGGYAMGWYRQAPGKERELVAAITSSGGLTYYADSVKGRFTISRDNAKNTVYLQMNCLKPEDTAVYYCAAVTVAGYDYWGQGTQVTVSS” the “polyreactivity (PSR sort gate)” value was “high polyreactivity”. For “QVQLVESGGGLVQAGGSLRLSCASSGSIFLINAMGWYRQAPGKERELVAAISRSGGRTYYADSVKGRFTISRDNAKNTVYLQMNSLKPEDTAVYYCAVPSIYYAGRAYDYWGQGTQVTVSS”, the “polyreactivity (PSR sort gate)” value was “high polyreactivity”. With “QVQLVESGGGLVQAGGSLRLSCASSGSIFPRYAMGSYRPAPGKERELVAAISQSGGRTYYADSVKGRFTISRDNAKNTVYLQMNSMKPEDTAVYYCAALVSGEYDYWGQGTQVTVSS” the “polyreactivity (PSR sort gate)” value was “high polyreactivity”. With “QVQLVESGGGLVQAGGSLRLSCASSGSIFSTYAMGWYRQAPGKEMELVATIRRGGSTYYADSVKGPFTISRDNAKNTVYLQMNSLKPEDTELYYCAAAGGRFIRYGYWGQGTQVTVSS” the “polyreactivity (PSR sort gate)” value was “high polyreactivity”. With “QVQLVESGGGLVQAGGSLRLSCASSGSIFSYNAMGWYRQAPGKERELVAAITRSGGSTYYADSVKGRFTISRDNAKNTVYLQMNSLKPEDTAVYYCAVYLPYSQRYVHYYYWGQGTQVTVSS” the “polyreactivity (PSR sort gate)” value was “high polyreactivity”.
